Laboratory results: paper PMC3548508
Values joined by “and” are separate entries in the source; they are usually repeats but may differ in a detail not shown here. Identical values can stand only once.

Key:
[1] = biological target: TraM C-terminal domain (TraM 190-322) from the Enterococcus faecalis conjugative plasmid pIP501 (Enterococcus faecalis (conjugative plasmid pIP501)); assay: cross-linking
[2] = biological target: Selenomethionine-containing TraMΔ as crystallised (TraM 194-322) (Enterococcus faecalis (conjugative plasmid pIP501)); assay: crystal structure

TraM C-terminal domain (TraM 190-322) from the Enterococcus faecalis conjugative plasmid pIP501 (domain or fragment)
stoichiometry N [1]: 2 and 3

Selenomethionine-containing TraMΔ as crystallised (TraM 194-322) (domain or fragment)
stoichiometry N [2]: 3
